To fix the notation:
B1: human synthetic scFv fragment 3 (scFv)
scFv: EVQLLESGGGLVQPGGSLRLSCAASGFTFSSYAMSWVRQAPGKGLEWVSAISGSGGSTYYASVKGRFTISRDNSKNTLYLQMNSLRAEDTAVYYCARVYYHYYYYGSFDYWGQGTLVTVSSGGGGSGGGGSGGGGSDIQMTQSPSSLSASVGDRVTITCRASQSISSYLNWYQQKPGKAPKLLIYAASSLQSGVPSRFSGSGSGTDFTLTISSLQPEDFATYYCQQSTHLSTFGQGTKLEIKR
notes: also called scFv 3
B2: human synthetic scFv fragment 10 (scFv)
scFv: EVQLLESGGGLVQPGGSLRLSCAASGFTFSSYAMSWVRQAPGKGLEWVSAISGSGGSTYYASVKGRFTISRDNSKNTLYLQMNSLRAEDTAVYYCARYSYYYTWLDYWGQGTLVTVSSGGGGSGGGGSGGGGSDIQMTQSPSSLSASVGDRVTITCRASQSISSYLNWYQQKPGKAPKLLIYAASSLQSGVPSRFSGSGSGTDFTLTISSLQPEDFATYYCQQFYPSLHTFGQGTKLEIKR
notes: also called scFv 10
B3: human synthetic scFv fragment 8 (scFv)
scFv: EVQLLESGGGLVQPGGSLRLSCAASGFTFSSYAMSWVRQAPGKGLEWVSAISGSGGSTYYASVKGRFTISRDNSKNTLYLQMNSLRAEDTAVYYCARVFYYGPYYFSYHFDYWGQGTLVTVSSGGGGSGGGGSGGGGSDIQMTQSPSSLSASVGDRVTITCRASQSISSYLNWYQQKPGKAPKLLIYAASSLQSGVPSRFSGSGSGTDFTLTISSLQPEDFATYYCQQDDRGLPTFGQGTKLEIKR
notes: also called scFv 8
B4: human synthetic scFv fragment 6 (scFv)
scFv: EVQLLESGGGLVQPGGSLRLSCAASGFTFSSYAMSWVRQAPGKGLEWVSAISGSGGSTYYASVKGRFTISRDNSKNTLYLQMNSLRAEDTAVYYCARYVRGYGYGYLDYWGQGTLVTVSSGGGGSGGGGSGGGGSDIQMTQSPSSLSASVGDRVTITCRASQSISSYLNWYQQKPGKAPKLLIYAASSLQSGVPSRFSGSGSGTDFTLTISSLQPEDFATYYCQQAPAYSPFTFGQGTKLEIKR
notes: also called scFv 6
B5: human synthetic scFv fragment 11 (scFv)
scFv: EVQLLESGGGLVQPGGSLRLSCAASGFTFSSYAMSWVRQAPGKGLEWVSAISGSGGSTYYASVKGRFTISRDNSKNTLYLQMNSLRAEDTAVYYCARYTYYVGGFDYWGQGTLVTVSSGGGGSGGGGSGGGGSDIQMTQSPSSLSASVGDRVTITCRASQSISSYLNWYQQKPGKAPKLLIYAASSLQSGVPSRFSGSGSGTDFTLTISSLQPEDFATYYCQQGFVLSTFGQGTKLEIKR
notes: also called scFv 11
B6: human synthetic scFv fragment 1 (scFv)
scFv: EVQLLESGGGLVQPGGSLRLSCAASGFTFSSYAMSWVRQAPGKGLEWVSAISGSGGSTYYASVKGRFTISRDNSKNTLYLQMNSLRAEDTAVYYCARHYYNWASGYFDYWGQGTLVTVSSGGGGSGGGGSGGGGSDIQMTQSPSSLSASVGDRVTITCRASQSISSYLNWYQQKPGKAPKLLIYAASSLQSGVPSRFSGSGSGTDFTLTISSLQPEDFATYYCQQGWYPPTFGQGTKLEIKR
notes: also called scFv 1
B7: human synthetic scFv fragment 2 (scFv)
scFv: EVQLLESGGGLVQPGGSLRLSCAASGFTFSSYAMSWVRQAPGKGLEWVSAISGSGGSTYYASVKGRFTISRDNSKNTLYLQMNSLRAEDTAVYYCARTTSYYGYSAHFIDYWGQGTLVTVSSGGGGSGGGGSGGGGSDIQMTQSPSSLSASVGDRVTITCRASQSISSYLNWYQQKPGKAPKLLIYAASSLQSGVPSRFSGSGSGTDFTLTISSLQPEDFATYYCQQGYGPFTFGQGTKLEIKR
notes: also called scFv 2
B8: human synthetic scFv fragment 7 (scFv)
scFv: EVQLLESGGGLVQPGGSLRLSCAASGFTFSSYAMSWVRQAPGKGLEWVSAISGSGGSTYYASVKGRFTISRDNSKNTLYLQMNSLRAEDTAVYYCARYTHSTYGYRLDYWGQGTLVTVSSGGGGSGGGGSGGGGSDIQMTQSPSSLSASVGDRVTITCRASQSISSYLNWYQQKPGKAPKLLIYAASSLQSGVPSRFSGSGSGTDFTLTISSLQPEDFATYYCQQDAYHPPTFGQGTKLEIKR
notes: also called scFv 7; AK7
B9: human synthetic scFv fragment 5 (scFv)
scFv: EVQLLESGGGLVQPGGSLRLSCAASGFTFSSYAMSWVRQAPGKGLEWVSAISGSGGSTYYASVKGRFTISRDNSKNTLYLQMNSLRAEDTAVYYCARSYSWYSRGPSLDYWGQGTLVTVSSGGGGSGGGGSGGGGSDIQMTQSPSSLSASVGDRVTITCRASQSISSYLNWYQQKPGKAPKLLIYAASSLQSGVPSRFSGSGSGTDFTLTISSLQPEDFATYYCQQAFYAHLLTFGQGTKLEIKR
notes: also called scFv 5
B10: human synthetic scFv fragment 9 (scFv)
scFv: EVQLLESGGGLVQPGGSLRLSCAASGFTFSSYAMSWVRQAPGKGLEWVSAISGSGGSTYYASVKGRFTISRDNSKNTLYLQMNSLRAEDTAVYYCARSHYGSLDYWGQGTLVTVSSGGGGSGGGGSGGGGSDIQMTQSPSSLSASVGDRVTITCRASQSISSYLNWYQQKPGKAPKLLIYAASSLQSGVPSRFSGSGSGTDFTLTISSLQPEDFATYYCQQFSYTLSTFGQGTKLEIKR
notes: also called scFv 9
B11: human synthetic scFv fragment 12 (scFv)
scFv: EVQLLESGGGLVQPGGSLRLSCAASGFTFSSYAMSWVRQAPGKGLEWVSAISGSGGSTYYASVKGRFTISRDNSKNTLYLQMNSLRAEDTAVYYCARTYYYFYPYGYYFDYWGQGTLVTVSSGGGGSGGGGSGGGGSDIQMTQSPSSLSASVGDRVTITCRASQSISSYLNWYQQKPGKAPKLLIYAASSLQSGVPSRFSGSGSGTDFTLTISSLQPEDFATYYCQQGFYLPTFGQGTKLEIKR
notes: also called scFv 12

The target in the test is T1, purified prostasomes (from human seminal plasma) (human).
T1 construct: Not a single protein: exosome-type vesicle purified from seminal plasma
The experiment in a line: direct ELISA, coated purified prostasomes, biotinylated scFv at 4 µg/mL, streptavidin-HRP. As for the experimental part: The wells were washed three times with PBS containing 0.05% Tween 20. Addition of biotinylated human synthetic scFv fragments 1:250 in row A were made and then 1:5 dilutions downwards. The plates were then incubated for 2 h at room temperature and then washed three times with PBS containing 0.05% Tween 20. 100 μL Streptavidine-HRP was added to the wells and incubated for 2 h at room temperature. The wells were washed three times with PBS containing 0.05% Tween 20. 100 μL TMB (tetramethylbenzidine) substrate was added to the wells, and incubated for 20 min and 25 μL 1 M H2SO4 was added to the plate. The plate was read at 450 nm.
Seminal plasma was collected from the Reproduction Centre at Akademiska Hospital (Uppsala, Sweden) following previously described routines (Ronquist, G. K., et al., Prostasomal DNA characterization and transfer into human sperm. Mol Reprod Dev, 2011. 78 (7): p. 467-76). The seminal plasma was thawed and centrifuged at 3,000 g for 12 min. The supernatants were collected and centrifuged at 10,000 g for 30 min. The supernatants were then transferred to new tubes and ultra-centrifuged using a 90Ti rotor (Beckman Coulter, Brea, Calif., USA) at 100,000 g for 2 h. The pellets were resuspended in 0.02 M NaH2PO4, 0.15 M NaCl, pH 7.2 (PBS), overnight at 4° C. The resuspended pellets were then loaded on a chromatography column (XK 60/70, GE Healthcare, Uppsala, Sweden) packed with Superdex 200 gel. Fractions were collected at a flow rate of 5 mL/h. The fractions were then measured with a spectrophotometer where peaks at both 260 nm (nucleic acid) and 280 nm (proteins) corresponds to prostasomes. These fractions were collected and pooled and ultra-centrifuged at 100,000 g. The obtained pellet was resuspended in PBS. The purified prostasomes (1 mg/ml were diluted 1:250 in PBS and 100 μL were added per well in a F96 Polysorb NUNC Immunoplate (Thermo Fisher Scientific, Uppsala, Sweden). The plates were incubated for 2 h at ambient temperature and then washed three times with PBS containing 0.05% Tween 20 (P1379, Sigma-Aldrich). 120 μL 1% bovine serum albumin (BSA, Sigma-Aldrich) in PBS were added to the wells and the plate was incubated over night at ambient temperature. The plate was washed three times with PBS containing 0.05% Tween 20. 100 μL of the biotinylated monoclonal antibodies were added in dilution of 4 μg/mL in PBS to the wells.
(In general: ELISA stands for enzyme-linked immunosorbent assay.)
B1 returned an Absorbance of 0.903 absorbance at 450 nm.

Consider B2, for which the Absorbance came to 1.64 absorbance at 450 nm.

B3 came in with an Absorbance of 0.653 absorbance at 450 nm.

Consider B4, for which the Absorbance is 0.556 absorbance at 450 nm.

As for B5, the Absorbance came to 0.066 absorbance at 450 nm.

Molecule B6 registered an Absorbance of 0.643 absorbance at 450 nm.

B7 yielded an Absorbance of 0.394 absorbance at 450 nm.

For B8, the Absorbance came out at 1.36 absorbance at 450 nm.

Consider B9, for which the Absorbance amounted to 0.617 absorbance at 450 nm.

B10 returned an Absorbance of 1.29 absorbance at 450 nm.

Consider B11, for which the Absorbance is 0.954 absorbance at 450 nm.

Source of the values: patent US20230093265A1 (PROSMEDIC SWEDEN, published 2023).
